Measurements taken from article PMC3438196.
Changes are numbered by the printed parent chain. Names and notes keep the numbering of the source.

B1: Apobec3G-GFP MAPPIT bait (pCEL-Apobec3G-GFP), Q9HC16 Y59N (protein)
chain: MKPHFRNTVERMYRDTFSYNFYNRPILSRRNTVWLCYEVKTKGPSRPPLDAKIFRGQVNSELKYHPEMRFFHWFSKWRKLHRDQEYEVTWYISWSPCTKCTRDMATFLAEDPKVTLTIFVARLYYFWDPDYQEALRSLCQKRDGPRATMKIMNYDEFQHCWSKFVYSQRELFEPWNNLPKYYILLHIMLGEILRHSMDPPTFTFNFNNEPWVRGRHETYLCYEVERMHNDTWVLLNQRRGFLCNQAPHKHGFLEGRHAELCFLDVIPFWKLDLDQDYRVTCFTSWSPCFSCAQEMAKFISKNKHVSLCIFTARIYDDQGRCQEGLRTLAEAGAKISIMTYSEFKHCWDTFVDHQGCPFQPWDGLDEHSQDLSGRLRAILQNQEN
B2: Apobec3G-GFP MAPPIT bait (pCEL-Apobec3G-GFP), Q9HC16 F157I (protein)
chain: B1 chain with N59Y, F157I
B3: Apobec3G-GFP MAPPIT bait (pCEL-Apobec3G-GFP), Q9HC16 D130Y (protein)
chain: B1 chain with N59Y, D130Y
B4: Apobec3G-GFP MAPPIT bait (pCEL-Apobec3G-GFP), Q9HC16 L27R (protein)
chain: B1 chain with L27R, N59Y
B5: Apobec3G-GFP MAPPIT bait (pCEL-Apobec3G-GFP), Q9HC16 K270E (protein)
chain: B1 chain with N59Y, K270E
B6: Apobec3G-GFP MAPPIT bait (pCEL-Apobec3G-GFP), Q9HC16 W94R (protein)
chain: B1 chain with N59Y, W94R
B7: Apobec3G-GFP MAPPIT bait (pCEL-Apobec3G-GFP), Q9HC16 W175R (protein)
chain: B1 chain with N59Y, W175R
B8: Apobec3G-GFP MAPPIT bait (pCEL-Apobec3G-GFP), Q9HC16 Y222N (protein)
chain: B1 chain with N59Y, Y222N
B9: Apobec3G-GFP MAPPIT bait (pCEL-Apobec3G-GFP), Q9HC16 R238C (protein)
chain: B1 chain with N59Y, R238C
B10: Apobec3G-GFP MAPPIT bait (pCEL-Apobec3G-GFP), Q9HC16 V265M (protein)
chain: B1 chain with N59Y, V265M
B11: Apobec3G-GFP MAPPIT bait (pCEL-Apobec3G-GFP), Q9HC16 E191V (protein)
chain: B1 chain with N59Y, E191V
B12: Apobec3G-GFP MAPPIT bait (pCEL-Apobec3G-GFP), Q9HC16 R102G (protein)
chain: B1 chain with N59Y, R102G
B13: Apobec3G-GFP MAPPIT bait (pCEL-Apobec3G-GFP), Q9HC16 R30L (protein)
chain: B1 chain with R30L, N59Y
B14: Apobec3G-GFP MAPPIT bait (pCEL-Apobec3G-GFP), Q9HC16 W127R (protein)
chain: B1 chain with N59Y, W127R
B15: Apobec3G-GFP MAPPIT bait (pCEL-Apobec3G-GFP), Q9HC16 R24G (protein)
chain: B1 chain with R24G, N59Y
B16: Apobec3G-GFP MAPPIT bait (pCEL-Apobec3G-GFP), Q9HC16 R136S (protein)
chain: B1 chain with N59Y, R136S
B17: Apobec3G-GFP MAPPIT bait (pCEL-Apobec3G-GFP), Q9HC16 R122C (protein)
chain: B1 chain with N59Y, R122C
B18: Apobec3G-GFP MAPPIT bait (pCEL-Apobec3G-GFP), Q9HC16 K79M (protein)
chain: B1 chain with N59Y, K79M
B19: Apobec3G-GFP MAPPIT bait (pCEL-Apobec3G-GFP), Q9HC16 H81L (protein)
chain: B1 chain with N59Y, H81L
B20: Apobec3G-GFP MAPPIT bait (pCEL-Apobec3G-GFP), Q9HC16 R78W (protein)
chain: B1 chain with N59Y, R78W

Target: T1, codon optimized Vif SLQ144-146AAA MAPPIT prey (pMG2-VifoptSLQ), P12504
Experiment: MAPPIT
Conditions: chain shown with the change

Binder | percent of parent
B1 | 18 % of WT
B2 | 39 % of WT
B3 | 43 % of WT
B4 | 26 % of WT
B5 | 58 % of WT
B6 | 27 % of WT
B7 | 20 % of WT
B8 | 12 % of WT
B9 | 55 % of WT
B10 | 92 % of WT
B11 | 41 % of WT
B12 | 44 % of WT
B13 | 21 % of WT
B14 | 16 % of WT
B15 | 32 % of WT
B16 | 53 % of WT
B17 | 16 % of WT

Target: T1, codon optimized Vif SLQ144-146AAA …
Experiment: MAPPIT
Conditions: chain shown with the change
Remark: another data set of the same source

Binder | percent of parent
B18 | 56 % of WT
B19 | 53 % of WT
B20 | 16 % of WT
B12 | 44 % of WT
B13 | 21 % of WT
